Experimental data: patent US20240324599A1, “PESTICIDAL ENZYMES FOR USE ON NEMATODES, INSECTS, AND MOLLUSKS” (priority 2023, published 2024)
Read-outs that look alike come from different tables or passages of the source.

Assays:
Format in all cases: in vivo
[1] = system: Steinernema feltiae; assay: In-vitro plate assay: Steinernema feltiae juvenile death after direct treatment; conditions: 40 μL per well (ILEVO 20 μL)
Description: To determine the effects of enzymes on an additional soil-dwelling nematode species (Steinernema feltiae), a NemAttack™ package containing approximately 5 million S. feltiae juveniles was purchased from ARBICO Organics. The nematodes arrived already hatched and dispersed within a powder. To prepare the nematodes for use, an aliquot of the dry nematode mixture was rehydrated in water. The liquid nematode mixture was adjusted to a concentration of 20-30 nematode juveniles per 10 μL. The free enzymes Esterase B (SEQ ID NO: 89) and Chitinase 19F (SEQ ID NO: 182) were produced as described in Example 2.
Potato dextrose agar media containing chloramphenicol and chlortetracycline was prepared and added to sterile twenty-four-well cell culture plates (1 mL per well). The plates were divided according to the pre-determined N-value for each treatment (N=12-24). […]
To quantify the treatments' effects on nematode viability, the nematodes were examined under a dissecting microscope at 20× magnification. Initial (T0) values for the number of live juveniles, number of dead juveniles and total number of juveniles were recorded immediately after preparation of each well. […] Approximately 20-22 hours post addition of juveniles, the plates were evaluated, and the number of live juveniles, dead juveniles and total number of juveniles were recorded. […]

[2] = system: soybean cyst nematode (SCN, Heterodera glycines); assay: Controlled environment soybean seed treatment trial: SCN cysts on roots; conditions: for % Comparison to Control: base control = 100%
[3] = system: SCN juveniles (SCN HG type 1.2.5.7, race 2); conditions: for Difference in Percent Death of Nematodes for 0 to 24 Hours: 40 μL of each treatment per well
Description: To identify an additional esterase enzyme with efficacy in reducing SCN viability, we performed an in-vitro plate assay with a Pseudomonas sp. esterase (SEQ ID NO: 248) free enzyme direct treatment. The Pseudomonas sp. esterase (SEQ ID NO: 248) was produced by fermentation in Bacillus subtilis. The enzyme was cloned into a Bacillus expression plasmid p1797 with isopropyl β-d-1-thiogalactopyranoside (IPTG) inducible expression. The plasmid was transformed into B. subtilis, and the gene sequence was confirmed. The strain was grown in rich media until an optical density (OD) 0.2-0.5 was reached. Enzyme expression was then induced by addition of […] IPTG. Following the culture harvest, cells were removed by filtration through a […] filter. The culture filtrate containing the secreted enzyme was then collected and used for further applications.
(§1) SCN eggs were obtained from SCN HG type 1.2.5.7, race 2. Eggs were rinsed 4 times with sterile water. Eggs were transferred to a 6-well plate and resuspended in 5 mL of 3 mM ZnSO4. The plate was sealed with parafilm, covered with aluminum foil to prevent light from entering the plate, and placed in a plate growth chamber at 25° C. and 80% relative humidity. After 6-7 days of incubation, an estimate of hatched SCN juveniles was obtained from the well to determine the overall number of juveniles per 10 μL. The concentration of the hatchery solution was adjusted until it consisted of 20-30 juveniles per 10 μL.
Potato dextrose agar media containing chloramphenicol and chlortetracycline was prepared and added to sterile twenty-four-well cell culture plates (1 mL per well). The plates were divided according to the pre-determined N-value for each treatment (N=12-24). Each treatment being tested was added to the agar surface within each well at a rate of 40 μL per well. Without allowing the treatments to dry, 10 μL of the prepared nematode mixture was added to the agar surface within each well.
To quantify the treatments' effects on nematode viability, the nematodes were examined under a dissecting microscope at 20× magnification. Initial (T0) values for the number of live juveniles, number of dead juveniles and total number of juveniles were recorded immediately after preparation of each well. The plates were then wrapped in parafilm around the open edge, encased in aluminum foil, and placed in secondary containment. The secondary containment was placed in a plant growth chamber at 25° C. and 80% relative humidity. At approximately 24 hours post addition of juveniles, the plates were evaluated, and the number of live juveniles, dead juveniles and total number of juveniles were recorded (T24).
The difference in percent death at T0 vs T24 was calculated by subtracting the percent dead at TO [(#dead juveniles/total #juveniles)×100] from the percent dead at T24 [(#dead juveniles/#total juveniles originally present)×100]. […] If the ANOVA indicated a significant difference existed among treatments, Tukey's HSD post hoc test was used to perform a pairwise contrast between each set of treatments. Different letters denote statistically significant results at P<0.05.
as §1, with “from” for “from SCN”, “rinsed four” for “rinsed 4”, “and 80-90%” for “and 80%”, “from each” for “from the”
Potato dextrose agar media containing chloramphenicol and chlortetracycline was prepared and added to sterile twenty-four-well cell culture plates (1 mL per well). […]

[4] = Table 11, free enzyme seed treatment 2 fl oz/unit, soybean P18A98X, ILEVO 0.15 mg AI/seed, 3 weeks after inoculation, base control 71.4

B1: Bacillus subtilis Esterase (EstB without signal sequence) (protein, listed as Bacillus subtilis)
chain: ESVHNPVVLVHGISGASYNFFAIKNYLISQGWQSNKLYAIDFYDKTGNNLNNGPQLASYVDRVLKETGAKKVDIVAHSMGGANTLYYIKYLGGGNKIQNVVTLGGANGLVSSTALPGTDPNQKILYTSIYSLNDQIVINSLSRLQGARNIQLYGIGHIGLLSNSQVNGYIKEGLNGGGLNTN
modifications: Esterase (EstB H191 without signal sequence)
- Difference in Percent Death of Nematodes for 0 to 20 Hours ([1]; Table 23, water control 3%): 33%
- % Comparison to Control ([2]; Table 11): 27%
- Average cysts per g of root tissue [2, 4]: 19.6 cysts per g of root tissue
- Average cysts per g of root tissue ([2]; Table 15, seed treated with whole cell broth, base control 59.8): 56.3 cysts per g of root tissue
- % Comparison to Control ([2]; Table 15, whole cell broth): 94%
- % Comparison to Control ([2]; Table 25): 80%
- Average cysts per g of root tissue ([2]; Table 25, soybean 3230E3, dried (PVP) formulation 0.04 units/seed, liquid 2 fl oz/unit, base control 289.9): 233.2 cysts per g of root tissue
- Difference in Percent Death of Nematodes for 0 to 24 Hours ([3]; Table 28, fertilizer 3% v/v): 3%
- difference in percent death over twenty-four hours, single treatment relative to the combination Esterase B + 10-34-0 fertilizer ([3]; text to Table 28): −7%

B2: Streptomyces coelicolor Chitinase F (Chi19F) (protein)
chain: ASCSSYHAWSADANYNTGDIVRYTDGKAYIAEHANPGYDPLISTWYWDPYACDGGSQTPVGNFVVSEAQFNQMFPGRNSFYTYSGLTAALSAYPGFANTGSDTTKKQEAAAFLANVSHETGGLVYIVEQNTANYPHYCDWNQPYGCPAGQAAYYGRGPIQLSWNFNYKAAGDALGIDLLGNPWLVQNDAAVAWKTGLWYWNTQSGPGTMTPHNAMVNGAGFGQTIRSINGSLECDGKNPAQVQSRVTKYQQFAQILGVSPGGNLYC
modifications: Chitinase F (Chi19F); Streptomyces coelicolor
- Difference in Percent Death of Nematodes for 0 to 22 Hours ([1]; Table 24, water control 7%): 17%
- % Comparison to Control ([2]; Table 11): 68%
- Average cysts per g of root tissue [2, 4]: 48.8 cysts per g of root tissue
- % Comparison to Control ([2]; Table 12): 79%
- Average cysts per g of root tissue ([2]; Table 12, seed treatment 2 fl oz/unit, ILEVO 0.15 mg AI/seed, base control 376.9): 296.9 cysts per g of root tissue
- Difference in Percent Death of Nematodes for 0 to 24 Hours ([3]; Table 32, water only 4%): 24%
- difference in percent death during 24 hours ([3]; text to Table 32): 24%
